Laboratory results as given in patent US20260042817A1 (PROVIDENCE HEALTH AND SERVICES OREGON, published 2026).

Target: T1, recombinant TGFβ (Homo sapiens (Human), UniProt P01137 279-390, Active TGFβ is a disulfide-linked homodimer ('TGFβ exists as a dimer'). One protomer is given; the assay form is two identical copies.)
T1 construct: also called TGF-beta; transforming growth factor beta
Assay: solution incubation of TGFβ (500 pg/mL) with a range of Fc:TβRII concentrations, 20 min at room temperature; remaining unbound TGFβ read on an anti-TGFβ1 ELISA plate
Protocol: The Fc:TβRII recombinant protein (glycosylated) was tested in vitro using enzyme-linked immunosorbent assay (ELISA) to verify a selective and high binding affinity for TGFβ. A known quantity of recombinant TGFβ (500 pg/mL) was incubated with a range of concentrations of Fc:TβRII in aqueous solution at room temperature for 20 minutes. Aliquots from each sample were applied to an anti-TGFβ1 ELISA plate to measure the remaining unbound TGFβ.

T1 sequence (P01137 279-390 limits assumed, form in doubt): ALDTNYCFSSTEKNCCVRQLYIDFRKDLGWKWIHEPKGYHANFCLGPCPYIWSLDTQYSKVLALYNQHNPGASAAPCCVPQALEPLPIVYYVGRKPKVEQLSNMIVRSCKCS

- IC50: 0.27 µg/mL
B1: Fc:TβRII recombinant protein (glycosylated) (Fc fusion)
chain: TIPPHVQKSVNNDMIVTDNNGAVKFPQLCKFCDVRFSTCDNQKSCMSNCSITSICEKPQEVCVAVWRKNDENITLETVCHDPKLPYHDFILEDAASPKCIMKEKKKPGETFFMCSCSSDECNDNIIFSEEYNTSNPDLLLVIFQSSSTMVRSVECPPCPAPPVAGPSVFLFPPKPKDTLMISRTPEVTCVVVDVSHEDPEVQFNWYVDGMEVHNAKTKPREEQFNSTFRVVSVLTVVHQDWLNGKEYKCKVSNKGLPAPIEKTISKTKGQPREPQVYTLPPSREEMTKNQVSLTCLVKGFYPSDIAVEWESNGQPENNYKTTPPMLDSDGSFFLYSKLTVDKSRWQQGNVFSCSVMHEALHNHYTQKSLSLSPGK
modifications: N-glycosylated (expressed in HEK 293T cells); sites not stated
notes: Purified on Protein A from HEK 293T supernatant; also called Fc:TβRII protein; unconjugated Fc:TβRII protein
